Measurements reported in article PMC9506113 (Pharmaceuticals, 2022).
“Also recorded” adds a separate entry of the source. Bridge positions count the residues as written; N and C are the ends. Square brackets hold non-standard residues; d marks the D form. Peptide text beside a SMILES is read from it. * marks the point of attachment. DOTA = O=C(O)CN1CCN(CC(=O)O)CCN(CC(=O)*)CCN(CC(=O)O)CC1; dPhe(4-NHCONH2) = NC(=O)Nc1ccc(C[C@@H](N)C(=O)O)cc1; Dihydroorotyl(S) = O=C1C[C@@H](C(=O)*)NC(=O)N1; Phe(4-Cl) = N[C@@H](Cc1ccc(Cl)cc1)C(=O)O; Phe(4-NH2) = Nc1ccc(C[C@H](N)C(=O)O)cc1

Key:
[1] = molecular target: T1, SST2 (AR42J rat pancreatic tumour membranes) (Rattus norvegicus, UniProt P30680); test: Saturation binding assay on AR42J cell membranes; conditions: AR42J cell membrane suspension 10 µg/well; radioligand 0.075-10 nM; one-site binding model; γ-counter; mean ± SEM
T1 construct: which is not the case for the AR42J model endogenously expressing SST2; host or cells: AR42J rat acinar pancreatic tumour cell line (membrane preparation)
T1 sequence (P30680 whole entry): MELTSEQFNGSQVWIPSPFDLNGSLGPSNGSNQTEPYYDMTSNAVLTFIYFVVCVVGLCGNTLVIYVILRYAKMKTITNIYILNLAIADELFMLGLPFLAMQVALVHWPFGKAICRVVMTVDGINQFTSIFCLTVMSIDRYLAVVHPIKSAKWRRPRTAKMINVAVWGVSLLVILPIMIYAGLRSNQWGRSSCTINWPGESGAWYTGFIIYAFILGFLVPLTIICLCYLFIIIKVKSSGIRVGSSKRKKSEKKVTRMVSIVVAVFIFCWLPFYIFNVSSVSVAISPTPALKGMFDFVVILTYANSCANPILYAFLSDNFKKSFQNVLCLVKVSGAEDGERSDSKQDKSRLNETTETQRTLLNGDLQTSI
Experimental: The SST2-expressing AR42J, acinar pancreatic tumour cell line derived from a transplantable tumour of a rat exocrine pancreas, was provided by ATCC (LGC Standards, Molsheim, France). Cells were cultured in RPMI 1640 medium (Dutscher, Bernolsheim, France), supplemented with 10% foetal calf serum (PAN-Biotech, Aidenbach, Germany), in a humidified atmosphere at 37 °C with 5% CO2. AR42J membranes were obtained by sonication in 50 mM Tris–HCl, pH 7.4, and centrifugation at 39,000× g for 10 min at 4 °C. The pellet was resuspended in the same buffer and centrifuged at 50,000 ×g for 10 min at 4 °C, and membranes in the resulting pellet were stored at −80 °C until further use.
Saturation binding assays were performed in vitro using AR42J cell membrane suspension (10 µg/well) incubated with increased concentrations (ranging between 0.075 and 10 nM) of the radioligand. […] Membrane-bound radio-peptide was counted in a γ-counter (COBRA 5003, Packard Instruments). The number of binding sites per cell was calculated and fitted to a one-site binding model in GraphPad Prism 8 to determine the dissociation constant (KD) and the number of binding sites (Bmax).

in vivo = conditions: female, Swiss Nude-Foxn1nu, mouse, in vivo, iv, total radioactivity
Experimental: (§1) Healthy female Swiss Nude-Foxn1nu mice, of 7 weeks old, were obtained from Charles River (Ecully, France). The animals were housed and cared for according to French and European regulations on animal experimentation. All procedures with animals were submitted to the Institutional Animal Care and Use Committee of Oncodesign (CNREEA Agreement N°91). Animal physical well-being was monitored on a daily basis, and animal weight was measured at least twice a week. Tumours were induced by subcutaneously injecting 1 × 10^7 AR42J cells in 200 μL of RPMI 1640 into the right flank of the mice. In order to improve cell engraftment, AR42J tumour cell implantation was performed 72 h after whole-body irradiation with a γ-source (2 Gy 60Co; BioMep, Bretenières, France).
(§2) All test substances, including the mixture of radiolabelling buffer and 0.9% NaCl solution administered in the vehicle group, were intravenously injected into the caudal vein once a week for 4 consecutive weeks. The treatment schedule was determined by the growth kinetics of the AR42J tumour model. The day of randomisation was considered as day 0. […] Tumour growth delay was estimated by calculating the median time taken to reach a tumour volume of 850 mm^3. Animals were sacrificed once their tumour volume exceeded 1500 mm^3. The study was stopped on day 83 because only 1 and 3 animals remained with non-progressing tumours in groups 3 and 4, respectively.
(§3) Twelve mice (3 in each group) were sacrificed at 96 h after the fourth administration of the test substances to evaluate at the same time toxicity and haematological parameters, and radioactivity uptake in tumours and organs after 4 cycles. The remaining 50 mice (10 in both groups 1 and 4, and 15 in both groups 2 and 3) were either sacrificed for ethical reasons on the last day of the study, on day 83. At 96 h, following the last treatment administration, individual tumours and organs of interest were collected, blotted dry, weighted, fixed in formalin, and the amount of radioactivity present in each organ was quantified using a γ-counter. The radioactivity uptake in tumour and organs was determined and expressed as MBq/g of tissue as well as percentage injected dose/g of tissue (%ID/g).

[2] = system: AR42J pancreatic tumour-bearing mice; test: In vivo biodistribution (radioactivity uptake in tumour and organs); conditions: for Tumour radioactivity uptake / Femur radioactivity uptake / Spleen radioactivity uptake / Adrenals radioactivity uptake / Kidneys radioactivity uptake / Tail radioactivity uptake: 96 h after fourth injection, mean; for Tumour radioactivity uptake: SST2 expression High; for Femur radioactivity uptake / Spleen radioactivity uptake: SST2 expression Minimal; for Adrenals radioactivity uptake: SST2 expression Moderate; for Kidneys radioactivity uptake / Tail radioactivity uptake: SST2 expression None; for Correlation of radioactivity uptake with SST2 expression levels in organs: except in the kidneys
Experimental: as §1, §2, §3

[3] = system: bone marrow, spleen, kidneys and other organs; test: Histopathology of normal organs (treatment-related microscopic observations); type: in vivo, Swiss Nude-Foxn1nu mice; conditions: for Spleen, extramedullary haematopoiesis, mean score: vehicle 3.7; for Bone marrow, eosinophilic vacuolated cells, number of mice: vehicle 0
Experimental: Once fixed, tumours, spleen, bone marrow (femur), jejunum, colon, tail (injection site), and kidneys were processed to paraffin blocks and tissues slides produced for immunohistochemical analyses or stained with haematoxylin and eosin (H&E) or sirius red (collagen staining) for histopathological examination.
All the slides were evaluated by a board-certified veterinary pathologist (S.L.) using a light microscope (Olympus BX41). The pH2AX and SST2 signal intensities were scored using a semi-quantitative approach (H-score), by multiplying the signal intensity score (0, absent; 1, weak; 2, moderate; 3, strong) with the percentage of labelled cells. The H-score, which ranges from 0 to 300, gives the relative weight of staining in a given tumour sample. Regarding the histopathological examination, the number of mitoses was counted in the areas of tumours with the highest mitotic figures in 1 high-power field at the objective 40. The severity of fibrosis was evaluated on a classical toxicologic pathology scale ranging from 0 (absent) to 5 (severe).

human and rat SST2 = system: human and rat SST2; parameters: method as in PMID 19910453; conditions: ref [10]; cited from earlier work
SST2-positive NETs = conditions: in vivo; cited from earlier work
kidney = conditions: human, in vivo; cited from earlier work
[4] = 15 MBq, Tail uptake (injection site), 15 MBq x 4, 96 h after fourth injection, mean (SEM)
[5] = 15 MBq, Tumour uptake, 15 MBq, i.v. once a week x 4, 96 h after fourth injection, mean (SEM)
[6] = 15 MBq, compared with [^177Lu]Lu-DOTA-TATE at 15 or 30 MBq, 96 h

Molecule	Kd [1] [nM]	tissue uptake at 96 h (in vivo; 15 MBq, Adrenals uptake) [%ID/g]	tissue uptake at 96 h (in vivo; 15 MBq, Femur uptake) [%ID/g]	tissue uptake at 96 h (in vivo; 15 MBq, Kidneys uptake) [%ID/g]	tissue uptake at 96 h (in vivo; 15 MBq, Spleen uptake) [%ID/g]	tissue uptake at 96 h (in vivo; [4]) [%ID/g]	tissue uptake at 96 h (in vivo; [5]) [%ID/g]	Tumour radioactivity uptake ([2]; 15 MBq x 4) [MBq/g]	Femur radioactivity uptake ([2]; 15 MBq x 4) [MBq/g]	Spleen radioactivity uptake ([2]; 15 MBq x 4) [MBq/g]	Adrenals radioactivity uptake ([2]; 15 MBq x 4) [MBq/g]	Kidneys radioactivity uptake ([2]; 15 MBq x 4) [MBq/g]	Tail radioactivity uptake ([2]; 15 MBq x 4) [MBq/g]	Correlation of radioactivity uptake with SST2 expression levels in organs ([2]; 15 MBq)	other results
C[C@@H](O)[C@H](NC(=O)[C@@H]1CSSC[C@H](NC(=O)[C@@H](Cc2ccccc2)NC(=O)CN2CCN(CC(=O)O)CCN(CC(=O)O)CCN(CC(=O)O)CC2)C(=O)N[C@@H](Cc2ccc(O)cc2)C(=O)N[C@H](Cc2c[nH]c3ccccc23)C(=O)N[C@@H](CCCCN)C(=O)N[C@@H]([C@@H](C)O)C(=O)N1)C(=O)O [[^177Lu]Lu-DOTA-TATE, metal not drawn]	0.48 ± 0.2	0.59	0.034	0.36	0.018	0.055	5.6	1.0	0.006	0.0032	0.11	0.066	0.01	overall well-correlated with SST2 expression levels in different organs, except in the kidneys	tissue uptake at 96 h (in vivo; 30 MBq, Adrenals uptake): 0.6 %ID/g; tissue uptake at 96 h (in vivo; 30 MBq, Femur uptake): 0.022 %ID/g; tissue uptake at 96 h (in vivo; 30 MBq, Kidneys uptake): 0.51 %ID/g; tissue uptake at 96 h (in vivo; 30 MBq, Spleen uptake): 0.015 %ID/g; tissue uptake at 96 h (in vivo; 30 MBq, Tail uptake (injection site), 30 MBq x 4, 96 h after fourth injection, mean (SEM)): 0.042 %ID/g; tissue uptake at 96 h (in vivo; 30 MBq, Tumour uptake, 30 MBq, i.v. once a week x 4, 96 h after fourth injection, mean (SEM)): 5.8 %ID/g; Tumour radioactivity uptake ([2]; 30 MBq x 4): 2.2 MBq/g; Femur radioactivity uptake ([2]; 30 MBq x 4): 0.008 MBq/g; Spleen radioactivity uptake ([2]; 30 MBq x 4): 0.006 MBq/g; Adrenals radioactivity uptake ([2]; 30 MBq x 4): 0.23 MBq/g; Kidneys radioactivity uptake ([2]; 30 MBq x 4): 0.20 MBq/g; Tail radioactivity uptake ([2]; 30 MBq x 4): 0.016 MBq/g; Correlation of radioactivity uptake with SST2 expression levels in organs ([2]; 30 MBq): overall well-correlated with SST2 expression levels in different organs, except in the kidneys; Spleen, extramedullary haematopoiesis, mean score ([3]; 30 MBq x 4, 96 h): 2.3; Bone marrow, eosinophilic vacuolated cells, number of mice ([3]; 30 MBq x 4, end of study, 11 mice examined): one animal
Pasireotide	–	–	–	–	–	–	–	–	–	–	–	–	–	–	Species difference human versus rat SST2 (human and rat SST2): species dissimilarities between human and rat SST2
C[C@@H](O)[C@@H]1NC(=O)[C@H](CCCCN)NC(=O)[C@@H](Cc2ccc(NC(N)=O)cc2)NC(=O)[C@H](Cc2ccc(NC(=O)[C@@H]3CC(=O)NC(=O)N3)cc2)NC(=O)[C@H](NC(=O)[C@H](Cc2ccc(Cl)cc2)NC(=O)CN2CCN(CC(=O)O)CCN(CC(=O)O)CCN(CC(=O)O)CC2)CSSC[C@@H](C(=O)N[C@H](Cc2ccc(O)cc2)C(N)=O)NC1=O [[^177Lu]Lu-satoreotide tetraxetan, metal not drawn] ({DOTA}-[Phe(4-Cl)][dC][Phe(4-NH2)](Dihydroorotyl(S))[dPhe(4-NHCONH2)]KTC[dY]-NH2; disulfide 2-7)	0.088 ± 0.01	0.7	0.08	2.9	0.072	0.082	20	3.5	0.014	0.013	0.12	0.51	0.015	overall well-correlated with SST2 expression levels in different organs, except in the kidneys	Safety profile (SST2-positive NETs): manageable safety profile; Mean femur radioactivity uptake versus [^177Lu]Lu-DOTA-TATE [2, 6]: two times higher; Mean kidney radioactivity uptake versus [^177Lu]Lu-DOTA-TATE [2, 6]: up to eight times higher; Mean tumour radioactivity uptake versus [^177Lu]Lu-DOTA-TATE [2, 6]: up to three times higher; also recorded: approximately three times higher tumour uptake; Renal uptake and potential renal toxicity (kidney): limited; Bone marrow, myeloid/erythroid ratio, mean score ([3]; 15 MBq x 4, 96 h, vehicle 2.3): 3.0; Spleen, extramedullary haematopoiesis, mean score ([3]; 15 MBq x 4, 96 h): 2.3; Bone marrow, eosinophilic vacuolated cells, number of mice ([3]; 15 MBq x 4, end of study, examined 11 (DOTATATE), 7 (satoreotide)): one animal; Bone marrow, myeloid/erythroid ratio, mean score ([3]; 15 MBq x 4, end of study, vehicle 1.2): 2.7
